The subject of the data set is T1, Pol6-67-X2 (Clostridium phage phiCPV4).
T1 sequence: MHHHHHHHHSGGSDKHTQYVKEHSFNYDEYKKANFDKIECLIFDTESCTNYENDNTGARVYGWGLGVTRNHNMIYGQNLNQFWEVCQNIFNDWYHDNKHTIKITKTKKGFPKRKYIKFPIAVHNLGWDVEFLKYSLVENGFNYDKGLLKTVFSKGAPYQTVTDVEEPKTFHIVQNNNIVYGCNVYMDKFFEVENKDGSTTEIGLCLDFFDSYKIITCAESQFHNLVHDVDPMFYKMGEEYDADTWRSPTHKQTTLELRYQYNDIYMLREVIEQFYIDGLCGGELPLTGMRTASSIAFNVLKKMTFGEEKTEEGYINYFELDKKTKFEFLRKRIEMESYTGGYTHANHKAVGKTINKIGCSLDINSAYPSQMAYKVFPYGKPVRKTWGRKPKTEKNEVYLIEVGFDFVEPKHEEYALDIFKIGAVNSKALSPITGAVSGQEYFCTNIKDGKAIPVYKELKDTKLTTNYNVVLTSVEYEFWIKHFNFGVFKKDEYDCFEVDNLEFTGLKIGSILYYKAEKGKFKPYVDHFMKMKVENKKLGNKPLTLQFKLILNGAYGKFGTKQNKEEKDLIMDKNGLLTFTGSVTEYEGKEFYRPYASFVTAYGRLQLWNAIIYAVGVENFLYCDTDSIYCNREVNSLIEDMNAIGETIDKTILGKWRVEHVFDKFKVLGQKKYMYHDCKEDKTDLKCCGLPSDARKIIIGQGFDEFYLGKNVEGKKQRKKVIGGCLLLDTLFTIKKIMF
The note with it: 5'-desthiobiotin-TEG; iSpC3 spacer between SEQ 15 and SEQ 22; 8x polymerase (26% at 1x); bound at 40 C with 1.2 uM polyphosphate nucleotides; extension 5 min at 30 C with 5 mM MgCl2, 10 uM nucleotides; % bound correlates ….

For “ACTGCTGATCTGTTCCTGAATCGACTACTACTATCATCATACCACCTCAGCTGCACGTTAAGTGCAGCTGAGGTGG [Fluorescent Hairpin DNA template]”, the activity is 66 % extension.

The values above are taken from patent US20190376133.
